experiment: soluble on expression in E. coli; label from the status in PepcDB or PDB records

Sequence	soluble on expression in E. coli
MHRSFGNLEFFRFQLSNQCPALQNIELEVPMHIERLDISEFGVEINRTSYAFQVKTDEEIDQTFDVDEFGMIDYDLVVDQNPDTILLDNRDPSNMHLELSYELQLLQNEYDRIEGLNGNDGIEDIEGLAKAREALEKRKTRYQFKYLKLMAREMGIKSQISIAREPLDQHIRFSINSPDRVPLYEEHLAYNKKIHEAQRSLLEKLFVGRPTICVKSLFIDSCFIVCIPKNMQFKVKHLSLSCNNFDEDLNAIRPLLHVSSFPLESIEVYGKWDSLDPILKTCGVLYFPGGCKIEKLLKLQNFHRKVHVNIFDALKQLPPSVKSWLENRQEIGTEYTFDISNEDQIILFLDEMKESNADRIVDEAELHVKLRMDNSTELYISYDPARDNVGRMKMKFQVQ	not soluble
MKEKIPFYNEKEFNEMMKKTKKGTFSGWYIINPENNSVEFSGSFNRQFKLNKPIIPVNTEYVTRKEFNEYKDSNDQRLIKIETTLTAQGEQINKLTQTVEKQGEQIRELQVEQKAQGEQIKAQGETLKLILQTLQKMSDRLDKIDPPK	soluble
MAHHHHHHMSSVINYEKFEKIDISSSDDDNKKKLNPHLTKLDNKDKVVIGPNGLTILKNNNDEKIKHDKYNNTSKNVEEIKDKNDEYKTIYNETNNEILNNKNDNIHVQNMNNYVADDKKYKDMFINGAVVPYEYIWNQSIHYINAFICLPLNCKAKNLIVDIKEDKLIVKIKNYKCGIIYNNNNNNNKTNQHNTQSNSFHDNVEILVDKKFPFKINTDEDTQIWEIKNMQINWYTLFNLSNEINNQNVHYLFEDYNMLDKQETFLYISVKKINEIENAYIWWSTLFKNEHPIKIENLPSRSSTNKAKKTMNSFKTAWDEAHEIFKKNISMKQLPFRIDSS	soluble
MKVLIDTNVILDVLLNRASFVQDAIAVLELTCGNIQAYVSASAITDIYYIAYKELRDKIRVKNLIKTLLQIITVAGISDKEIMSAIDSDWADFEDSLQNAVAESHDCSMIITRNISDFNGSNLQIISPKDFIVQFTHLEHHHHHH	not soluble
MSVEFYNQNAQQFFSSTVEVDSTSLLDQFVPYLPQGGLVLDAGCGSGRDSKRFLDMGYQIDAFDASAPLAALAEELLNQSVTVTTFENFTSSKRYDGIWACASLLHVTRESLPETFAHLAKMLKCGGAFYCSFKYGQDEVERDGRRFTNCNEVLLNQLLTSSPLAIDKLWVTQDLRAGREHEQWLNAILIKRLEHHHHHH	soluble
MGSDKIHHHHHHMPSSTTLQHAIENITIWRKGEQRAPHKPLLLLYVLSQYQRGHARMFDYASEIRDELHSLLERFGPQRRQYRPDMPFWRLKGDGFWELHNSDQCSTQGSRQPPGKELELCHVAGGFDEPHFALLNRNKRLINTLAHQILEAHFPESIQEELAEEMGFDLQQIRKERDPHFRQQVLRAYNYECAICGFNMRHDNTSVALEAAHIKWKQHGGPCEIPNGLALCAIHHKAFDKGSIGLDEDMRIQVSPAVNGGGIVGRLFWDFDGKPITLPQGKECYPQEGFVAWHRREVFRG	not soluble
MGSDKIHHHHHHMIGFDYGTSNCGVATMRNGQPHIIPLLGNESYIASNLYAPSRDVIANWLSQQLDSPQQANFIAERKAQLQKGQAALRELKFDGISSELLFGKSALAQYLEDPEEGYYIKSPKSFLGASGLATAQIQFFEDIVACMMSNVKNLTEQALQKEVTQTVIGRPINFQGLHGEESNRQAISVLTNAAKRVGFKDVEFQYEPVAAGFEFESSLTKETRVLVVDIGGGTSDCSMLLMSPDFTDNDNRNDHLLAHTGVRVAGNDFDIQLALQGIMPSFGMNSLLKTGKPMPTSSFYQALAINNINEQTEFYSAKNRRNLVQLSRDAKETAIIERLVAVHDHKLSYQLVNAAEQAKIALTEQSKQTIDLSDVTDGLCAEVTKETLRSANKRTLESIANIMQSAVQQAQCQPDVIFVTGGTAKSPVLSEFLQQQMPNVPIVVGDHFGSVTSGLARWAEKIYQ	not soluble
MGSDKIHHHHHHMKNNKNEKLKITIVSGFLGSGKTTFLTHYINELLKIDEKITVIMNEFGSFDVDGNHLSELVKVYPLLNGCVCCDMKSDLVQQIEMLSHNHETDHIIIEATGIAHPIELIMACQDPRIVQFVERPHVVSIVDALRFLQRQQYTDSTKRLMEEQLEVSDVLVVNKLDLISVEDRDALKNQLNEVNKYSSKIYTTYGQVNIEELSQFRDQLVMTHTHSHHHGINSMQYTFTTAIDRQLFYQFILRMPDNVLRLKGYVQFKDEPNVTYEFQYSFGMPDYEVINGDYPLTIVLIGEQLDVNRLKNKLDVLQFS	not soluble
MSGDDDIPEGLEAINLKMNATTDDSLESTRRMLALCEESKEAGIKTLVMLDDQGEQLERCEGALDTINQDMKEAEDHLKGMEKCCGLCVLPWNKTDDFEKTEFAKAWKKDDDGGVISDQPRITVGDSSMGPQGGYITKITNDAREDEMDENVQQVSTMVGNLRNMAIDMSTEVSNQNRQLDRIHDKAQSNEVRVESANKRAKNLITK	not soluble
MSLEWQDLAQLPVSIFKDYVTDAQDAEKPFIWTEVFLREINRSNQEIILHIWPMTKTVILGMLDRELPHLELAKKEIISRGYEPVVRNFGGLAVVADEGILNFSLVIPDVFERKLSISDGYLIMVDFIRSIFSDFYQPIEHFEVETSYCPGKFDLSINGKKFAGLAQRRIKNGIAVSIYLSVCGDQKGRSQMISDFYKIGLGDTGSPIAYPNVDPEIMANLSDLLDCPMTVEDVIDRMLISLKQVGFNDRLLMIRPDLVAEFDRFQAKSMANKGMVSRDEEGHHHHHH	soluble
MVKETKLYDLLGVSPSANEQELKKGYRKAALKYHPDKPTGDTEKFKEISEAFEILNDPQKREIYDQYGLEAARSGGPSFGPGGPGGAGGAGGFPGGAGGFSGGHAFSNEDAFNIFSQFFGGSSPFGGADDSGFSFSSYPSGGGAGMGGMPGGMGGMHGGMGGMPGGFRSASSSPTYPEEETVQVNLPVSLEDLFVGKKKSFKIGRKGPHGASEKTQIDIQLKPGWKAGTKITYKNQGDYNPQTGRRKTLQFVIQEKSHPNFKRDGDDLIYTLPLSFKESLLGFSKTIQTIDGRTLPLSRVQPVQPSQTSTYPGQGMPTPKNPSQRGNLIVKYKVDYPISLNDAQKRAIDENF	not soluble
MENSDDIRLIVKIAQLYYEQDMTQAQIARELGIYRTTISRLLKRGREQGIVTIAINYDYNENLWLEQQLKQKFGLKEAVVASSDGLLEEEQLSAMGQHGALLVDRLLEPGDIIGFSWGRAVRSLVENLPQRSQSRQVICVPIIGGPSGKLESRYHVNTLTYGAAARLKAESHLADFPALLDNPLIRNGIMQSQHFKTISSYWDSLDVALVGIGSPAIRDGANWHAFYGSEESDDLNARHVAGDICSRFYDINGGLVDTNMSEKTLSIEMAKLRQARYSIGIAMGEEKYSGILGALHGRYINCLVTNRETAELLLK	soluble
GPGSMVERTADQRIRTTEWEEVQYKFGNRVGKYATNEVELLAQKIADNNLNAPLKAYDPHEEKVMDKVERGGYDTGRAEEEGGPAFDDALPDDDDEALAAFRRKRLAELQRQKEVERFGVLRHVSGADYMTEVTEASSTNWVVAVLIKPGHDNCEALLSVMRVAAQRHRDVKFLSMVSTEAIKNFPDRHLPCVLLYRDKKLENQLTEVASWKGKQNRLSLESVERVLHRYGVIRNTDYDHDDDDDDA	not soluble
MMKNPNDIGFIHDISSLDSLRQKAVKEGKDGEQEALHAAARQFESIFTSMMLKSMREANEGFESNIMNSQNEKFYRQMLDEQMASELSANGSMGLADMIVAQLTAGQGNDKSETAMRDAANSAVEYRRVDPKKAREIEKRLIESGELSRTSHTPAKFDSPESFVNSMKPYAEKAAKALGVEPSLLLAQAALETGWGQKVVQNARGSSNNLFNIKADRSWQGDKVTTQTLEFHDNTPVKETAAFRSYSNYQDSFNDYVRFLNDNPRYETALQQRGDSESFIRGIHRAGYATDPTYADKVLQVKQKIESM	not soluble
GLGGEPVIVYADRGRSVIAAVEGRVEDLVRGDMIVVQADSNGEEVVYIASSPTEPPEVYRFKGGDVERVSSINRWVVEEFRLYKPRRVEVEAEGEVVEGWYIEPEGEGRKPLILFIHGGPKGMYGYGFYGEMQLFASEGFTVAYANPRGSDGYEEEFADIRGRYGDTDYKQLMKFLDAVVEGSDVDEGKMAVTGISYGGYMTNVIVTKTSRFRAAVSENGIADWIADFWAADIGYWFDPDQIGGTPLDNLEEYVKRSPAFHAKNVNTPVMLIHSMEDYRCFIDQALAMHTALKVNGKESFLVVFTKGSHGHSILASPRHRRKRLELKLKWIKEKLG	not soluble
MGSDKIHHHHHHMDDTTFLSTKEKILEIKPLMESAFGNILGYQELENMLAICTLVPFSNNQILFHQGDRIKGIYIIIKGTVDLIARTLGKGITKIETCLASDFLGETSFLLNEPSATSAVAKDNVTCLFIPSAYFELMPAFSPEAKYKIMKAIGYQACGRLKQLHDKIIDFISHSDMQSLSFLGRVIQTFTQPKIHTLDESGVDKDQIYKKTLFNSFTQDETDELLEHAIPLTANKNCVLIHENETIPVCYIVIYGAVQSNVIQNSKIAKLSVIGPDSLFASTACFLSDTKFSITFITCESATLLKISEAELQYFQKNKPMIWYKLFNLICGSIISLARSLKKLDVRLNIEKYNQ	not soluble
MSKPGQTILVALRKMIASGELAAGERLMEVPTAELFGVSRMPVRMAFRTLEQEGLLVPFGGRGFQVRSISPQEIAGAVDVRGVLEGLAARQMAERGLTQDARDALEACLVQGDALFDKGYVTEDDLEVYHDMNMRLHQVIVAGSGNRAIADALARNDHLPFASVTALAVDRHNLIREYRRFNFAHMQHHAVVDALINGQGARAEALMREHANATLRYADIFGAGVHERMKVIQRPD	not soluble
MGSDKIHHHHHHMILGIDVGGTSVKFGLVTPEGEIQNATRFMTADWVNGIGFVESMKLEIGNFLKQYPIVKGVGIGWPGLVSLDRTKVILLPNIPSVVNVPIVEILRSEFPHIHFKIENDAKCAALGEYYFGENKRMQTFILLALGTGVGSGVMMNGKLFIGGRGNGTEVGHMLTTRGKSLENQVGINHLIAYTHEQLALDVAKKSSLHTIAELSPKVIADHAAQGDALALAVWADIGTIIGESLVNIVRVMDLNNILLGGGISGAFDYFVPNLKKAMLEHLPTYYTDDMYIGKATLENDAGLLGAAGLIMEAI	not soluble
SLNSVKRVGGSNRYGTAVQISKQMYSTASTAVIVGGSSYADAISAAPLAYQKNAPLLYTNSDKLSYETKTRLKEMQTKNVIIVGGTPAVSSNTANQIKSLGIS	not soluble
MNTSELETLIRTILSEQLTTPAQTPVQPQGKGIFQSVSEAIDAAHQAFLRYQQCPLKTRSAIISAMRQELTPLLAPLAEESANETGMGNKEDKFLKNKAALDNTPGVEDLTTTALTGDGGMVLFEYSPFGVIGSVAPSTNPTETIINNSISMLAAGNSIYFSPHPGAKKVSLKLISLIEEIAFRCCGIRNLVVTVAEPTFEATQQMMAHPRIAVLAITGGPGIVAMGMKSGKKVIGAGAGNPPCIVDETADLVKAAEDIINGASFDYNLPCIAEKSLIVVESVAERLVQQMQTFGALLLSPADTDKLRAVCLPEGQANKKLVGKSPSAMLEAAGIAVPAKAPRLLIALVNADDPWVTSEQLMPMLPVVKVSDFDSALALALKVEEGLHHTAIMHSQNVSRLNLAARTLQTSIFVKNGPSYAGIGVGGEGFTTFTIATPTGEGTTSARTFARSRRCVLTNGFSIR	not soluble
